Assay results reported in IntAct's records for PubMed 20739938.

B1: Regulator of chromosome condensation (Homo sapiens), P18754 (parent)
chain: MSPKRIAKRRSPPADAIPKSKKVKVSHRSHSTEPGLVLTLGQGDVGQLGLGENVMERKKPALVSIPEDVVQAEAGGMHTVCLSKSGQVYSFGCNDEGALGRDTSVEGSEMVPGKVELQEKVVQVSAGDSHTAALTDDGRVFLWGSFRDNNGVIGLLEPMKKSMVPVQVQLDVPVVKVASGNDHLVMLTADGDLYTLGCGEQGQLGRVPELFANRGGRQGLERLLVPKCVMLKSRGSRGHVRFQDAFCGAYFTFAISHEGHVYGFGLSNYHQLGTPGTESCFIPQNLTSFKNSTKSWVGFSGGQHHTVCMDSEGKAYSLGRAEYGRLGLGEGAEEKSIPTLISRLPAVSSVACGASVGYAVTKDGRVFAWGMGTNYQLGTGQDEDAWSPVEMMGKQLENRVVLSVSSGGQHTVLLVKDKEQS

Variants of: B1
Settings: with h2b11, P02281

Variant | effect of a mutation on the interaction
MSPKRIAKRRSPPADAIPKSKKVKVSHRSHSTEPGLVLTLGQGDVGQLGLGENVMERKKPALVSIPEDVVQAEAGGMHTVCLSKSGQVYSFGCNDEGALGRDTSVEGSEMVPGKVELQEKVVQVSAGDSHTAALTDDGRVFLWGSFRDNNGVIGLLEPMKKSMVPVQVQLDVPVVKVASGNDHLVMLTADGDLYTLGCGEQGQLGRVPELFANRGGRQGLERLLVPKCVMLKSAGSRGHVRFQDAFCGAYFTFAISHEGHVYGFGLSNYHQLGTPGTESCFIPQNLTSFKNSTKSWVGFSGGQHHTVCMDSEGKAYSLGRAEYGRLGLGEGAEEKSIPTLISRLPAVSSVACGASVGYAVTKDGRVFAWGMGTNYQLGTGQDEDAWSPVEMMGKQLENRVVLSVSSGGQHTVLLVKDKEQS [R234A] | disrupting interaction
MSPKRIAKRRSPPADAIPKSKKVKVSHRSHSTEPGLVLTLGQGDVGQLGLGENVMERKKPALVSIPEDVVQAEAGGMHTVCLSKSGQVYSFGCNDEGALGRDTSVEGSEMVPGKVELQEKVVQVSAGDSHTAALTDDGRVFLWGSFRDNNGVIGLLEPMKKSMVPVQVQLDVPVVKVASGNDHLVMLTADGDLYTLGCGEQGQLGRVPELFANRGGRQGLERLLVPKCVMLASAGSAGHVRFQDAFCGAYFTFAISHEGHVYGFGLSNYHQLGTPGTESCFIPQNLTSFKNSTKSWVGFSGGQHHTVCMDSEGKAYSLGRAEYGRLGLGEGAEEKSIPTLISRLPAVSSVACGASVGYAVTKDGRVFAWGMGTNYQLGTGQDEDAWSPVEMMGKQLENRVVLSVSSGGQHTVLLVKDKEQS [K232A;R234A;R237A] | disrupting interaction

More lines, now with the values ahead:

effect of a mutation on the interaction | Variant
disrupting interaction | MSPKRIAKRRSPPADAIPKSKKVKVSHRSHSTEPGLVLTLGQGDVGQLGLGENVMERKKPALVSIPEDVVQAEAGGMHTVCLSKSGQVYSFGCNDEGALGRDTSVEGSEMVPGKVELQEKVVQVSAGDSHTAALTDDGRVFLWGSFRDNNGVIGLLEPMKKSMVPVQVQLDVPVVKVASGNDHLVMLTADGDLYTLGCGEQGQLGRVPELFANRGGRQGLERLLVPKCVMLKSRGSAGHVRFQDAFCGAYFTFAISHEGHVYGFGLSNYHQLGTPGTESCFIPQNLTSFKNSTKSWVGFSGGQHHTVCMDSEGKAYSLGRAEYGRLGLGEGAEEKSIPTLISRLPAVSSVACGASVGYAVTKDGRVFAWGMGTNYQLGTGQDEDAWSPVEMMGKQLENRVVLSVSSGGQHTVLLVKDKEQS [R237A]
disrupting interaction | MSPKRIAKRRSPPADAIPKSKKVKVSHRSHSTEPGLVLTLGQGDVGQLGLGENVMERKKPALVSIPEDVVQAEAGGMHTVCLSKSGQVYSFGCNDEGALGRDTSVEGSEMVPGKVELQEKVVQVSAGDSHTAALTDDGRVFLWGSFRDNNGVIGLLEPMKKSMVPVQVQLDVPVVKVASGNDHLVMLTADGDLYTLGCGEQGQLGRVPELFANRGGRQGLERLLVPKCVMLASRGSRGHVRFQDAFCGAYFTFAISHEGHVYGFGLSNYHQLGTPGTESCFIPQNLTSFKNSTKSWVGFSGGQHHTVCMDSEGKAYSLGRAEYGRLGLGEGAEEKSIPTLISRLPAVSSVACGASVGYAVTKDGRVFAWGMGTNYQLGTGQDEDAWSPVEMMGKQLENRVVLSVSSGGQHTVLLVKDKEQS [K232A]
